Tested on: MS2 coat protein
Experiment: apparent KD of MS2 coat protein; designed switch direction (-1 OFF switch, 1 ON switch): -1; higher = weaker reporter binding
In short: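 The reported apparent KD is a per-design median over clusters, from curve fits of normalised cluster fluorescence. Protein titrations used SNAP-549-labelled MS2 coat protein, doubled from 0.7 or 1.5 nM to 3 µM, in Tris-HCl pH 7.5 buffer with KCl, MgCl2, BSA, DTT, tRNA and Tween-20, with no input, 200 uM small-molecule ligand, or an oligonucleotide input. The RNA switches were transcribed on Illumina chips by stalled E. coli RNA polymerase.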

[1] = input ligand: microRNA oligo, concentration not stated
[2] = Eterna round: R95, input ligand: microRNA oligo, concentration not stated
[3] = Eterna round: R95, input ligand: FMN 200 uM
[4] = Eterna round: R95, input ligand: none

Sequence | apparent KD of MS2 coat protein (input ligand: FMN 200 uM) [nM] | apparent KD of MS2 coat protein (input ligand: none) [nM] | apparent KD of MS2 coat protein [1] [nM] | apparent KD of MS2 coat protein [2] [nM] | apparent KD of MS2 coat protein [3] [nM] | apparent KD of MS2 coat protein [4] [nM]
GGUCCUGAUGAUUUUCUAUACAUGAGGAUCACCCAUGUAUGUUUAUUUUGUUUUUCGCUUUUUGGUCGUCAAUAAUA [Honey] (Eterna round: R97, puzzle: Sensor, turn-off variant 1) | 44.1 | 41.6 | – | – | – | –
UUGAUUCAUUCCUCCAUAAACAUGAGGAUCACCCAUGUAAGUGAGGAUAUAGUUGGAGUAGUAUACUAGAAGGCACUUAGAUAU [JR_ExcNG3_Sub047] (Eterna round: R96, puzzle: Exclusion NG 3) | – | – | 8.77 | – | – | –
CAGUACUGAGGAUAUACAUGAGGAUCACCCAUGUGUUCCAGCUAGGAAACUAGCAUAUGUAGAAGGCAGUACUG [Eli x3 4.06] (Eterna round: R97, puzzle: Exclusion 3) | 578 | 298 | – | – | – | –
ACAUGAGGGAAGGGAGGAGGGACAUGAGGAUCACCCAUGUCUCAGGAUAUAGAAGAAGAAAGAAACUAGAAGGGAGAGGAGGGU [Kawasakiqro] (Eterna round: R96, puzzle: Exclusion NG 3) | 29.7 | 25 | 16.6 | – | – | –
GAUUGACAUGAGGAUCACCCAUGUGAGGAUAUCGGCUGGACCGUGUUGGCUUGCCUUUCGAGAAGGCGCAUAGG [Exclusion 1 V48] (puzzle: Exclusion 1) | – | – | – | 32.4 | – | –
CAUACAGUAGUUAGGAUAUUGCAACGUACACGGAACGAGAAGGGACAUGAGGAUCACCCAUGUAGAUUGUAAAG [EX-4 Malc #8] (puzzle: Brourd's mod of Exclusion 4) | – | – | – | 20 | – | –
CUGAGGUAGCGGUCCUAUGACAUGAGGAUCACCCAUGUACCUUGCUACAAGCUUUUUGCUCGUCUUAUGAUUCUCGG [JL Atriat mod 8] (Eterna round: R96, puzzle: Sensor v3, turn-off variant 1) | 81.3 | 82.7 | 154 | – | – | –
UGCAGACGAGGAUAUGAUCAAUAAUACAUGAGGAUCACCCAUGUAAUACUGAUCCAUGGAUCAGAAGGUGUCUGCA [E5/5-B2] (Eterna round: R97, puzzle: Exclusion 5) | 19.5 | 17.5 | – | – | – | –
CCUAUGUGAGGAUAUGUCUGGUCUUCUUUUGUUUUUUACAGACAGAAGGCACAUGAGGAUCACCCAUGUCAGAC [Ex4 - 3 - 47] (puzzle: Exclusion 4) | – | – | – | 17 | – | –
AGAUGCUCAAGUCGACAUGAGGAUCACCCAUGUACAAUUAACGAGGAUAUCCGAGAUAAAUAAUAGGAGAAGGCGUGAUCAUGA [Mat - Exclusion NG 3 - Mod of JL - D54] (Eterna round: R96, puzzle: Exclusion NG 3) | 66.2 | 470 | 110 | – | – | –
GGUUGGCGAGGAUAUACAUGAGGAUCACCCAUGUGAGAGGAAAAAGUGAGGAAGAAAAGUAGAAGGCGCUGACG [salish99_ex3_r3_002] (puzzle: Exclusion 3) | – | – | – | 60.8 | 142 | 56.7
CGCGUAGGAGGAUAUAUGGCAUACAACAUGAGGAUCACCCAUGUAGUCGCACGUUGGGAUAUAGAAGGCCUGCGAA [Eternabot (L1) Solution 87] (Eterna round: R97, puzzle: Exclusion 5) | 18.3 | 20 | – | – | – | –
ACUUAUAGAGGAUAUACAGUUAAUUACAUGAGGAUCACCCAUGUUCUUCAAUGUAUAUAAGUAGAAGGCUAAAGGA [Mat - Exclusion 5 - Eli Mod - D6] (Eterna round: R97, puzzle: Exclusion 5) | 198 | 19.3 | – | – | – | –
UUUAAUUUUUUUUUUUUACAAGCUUUUUGCUCGUCUUAUACAUGAGGAUCACCCAUGUAGAUGGGAAAUGAAUUAUC [JMF 98] (puzzle: Sensor v3, turn-off variant 2) | – | – | – | 144 | 26.1 | 22.7
GUUAGACAUGAGGAUCACCCAUGUGAGGAUAUGAUGCGAUCGUGAUGAAAUGAUCGCAUCAGAAGGCACAUAUG [Mat - Mod of JL D67] (puzzle: Exclusion 1) | – | – | – | 123 | – | –
UAUUAGCAAGCGAGUCUUCACAUGAGGAUCACCCAUGUGCUCGUCUUAUAAGGUACUGUGACGAAAGUCACGGUACC [Eli 91 v32] (Eterna round: R97, puzzle: Sensor, turn-off variant 1) | 15.4 | 14.8 | – | – | – | –
GCUCGCGGGCAAGGAUAUCCUACGCUGUUCUGGCCCGUGUCUGUUACAUGAGGAUCACCCAUGUGGGAGAAGGUGCACCAGGGC [Design 46] (Eterna round: R96, puzzle: Exclusion NG 2) | 19.7 | 19.1 | 11.9 | – | – | –

Sequence | apparent KD of MS2 coat protein (input ligand: FMN 200 uM) [nM] | apparent KD of MS2 coat protein (input ligand: none) [nM] | apparent KD of MS2 coat protein [1] [nM] | apparent KD of MS2 coat protein [2] [nM] | apparent KD of MS2 coat protein [3] [nM] | apparent KD of MS2 coat protein [4] [nM]
UGCAUGUGAGGAUAUGUACCUGAGUGCUUUGCGCUCAGGAAACAGAAGGCACAUGAGGAUCACCCAUGUGAAAA [jl-ex4-4.46 ViennaUCT mod] (Eterna round: R97, puzzle: Exclusion 4) | 74.1 | 208 | – | – | – | –
GGCAUCGGAGGAUAUAUUUAUGGUGAUACCCGAAGCUUUCUACUUGAGGAUCACCCAAGUAGAAGGCCGAUGCC [jl-ex2.4.82 ViennaUCT mod] (Eterna round: R97, puzzle: Exclusion 2) | 17.4 | 10.9 | – | – | – | –
AGUAUAGUCCAUGGCCGCAAGCUUUUUACUUGUCUUACCACAUGAGGAUCACCCAUGUGACAUGGGCACCUUAUGAU [Sensor v3, turn-off variant 2 (MOD of Oranla v.4)] (puzzle: Sensor v3, turn-off variant 2) | – | – | – | 34.3 | 20.4 | 19.6
UUAUACGUUGAGGAUAUGCGAAUUAGUAUAGUUGCAGAAGGCGAUACAUGAGGAUCACCCAUGUUCAUGGGCAU [LRO-Ex6-05] (puzzle: Exclusion 6) | – | – | – | 135 | – | –
AAGUGGUGAGGAUAUAUAUACCAAUCUUCGAGGCACGACCAACAUGAGGAUCACCCAUGUAGAAGGCACCACAA [Eternabot (Original) Solution 39] (Eterna round: R97, puzzle: Exclusion 2) | 32.7 | 14.9 | – | – | – | –
ACAUGAGGAUCACCCAUGUACAGGGUUUAGUUUCAUCGUUUGAAGGAUAUACACUGUUAGUUGUCGUAGAAGGUCACUGAUUGG [JR_ExcNG3_Sub010] (Eterna round: R96, puzzle: Exclusion NG 3) | 93.9 | 130 | 93.3 | – | – | –
UUCACAUGGACAUAAGAUCACAUGAGGAUCACCCAUGUGAAUAACAAGCUUUUUGCUCGUCUUAUGUCCAAUAAUAU [Stov1/14-A3] (Eterna round: R97, puzzle: Sensor, turn-off variant 1) | 13.2 | 13.2 | – | – | – | –
GUAAACGCAGAGGAUAUAUCAGAUCAAAGCUGCAUAGAAGGCUGCACAUGAGGAUCACCCAUGUGGUCUUUAAG [Mat - Exclusion 6 - JL Mod - D4] (Eterna round: R97, puzzle: Exclusion 6) | 128 | 18.4 | – | – | – | –
UGUUGUUACGUAGGAUAUUGUCAACAGGCAGUAGGAUAUGCGAAAGCAGAAGGACCGCCAACAGGCGAGAAGGACGGGUUAACA [pwkr exNG2 2xF7 2xFMN.3] (Eterna round: R96, puzzle: Exclusion NG 2) | 614 | 42.7 | 514 | – | – | –
AAAAGCGUCACAGGAUAUUCAGGCGACGCCAAAGAAGAAGGGUGAGGCACAAACAUGAGGAUCACCCAUGUGGUCCUCUCCCGA [Vebiquti] (Eterna round: R96, puzzle: Exclusion NG 1) | 19.2 | 15.6 | 11 | – | – | –
AAGAACUUAGGAUAUACAUGAGGAUCACCCAUGUAGCUUCACUUGGGCCUGAGCCCGUGUAGAAGGAAGAAAAU [Arge] (puzzle: Exclusion 3) | – | – | – | 66 | – | –
GACCUGGCGAAGGAUAUCUGGAGGGAGUACAUCAGAGAAGGUCGCACAUGAGGAUCACCCAUGUUUGCAAUAGC [Eternabot (Original) Solution 22] (Eterna round: R97, puzzle: Exclusion 6) | 25.7 | 21.6 | – | – | – | –
GCCUUAUCCGUCAGGAUAUACAGCCGCUCCCUGUUGUAGAAGGGACAUGAGGAUCACCCAUGUACGUACCACCC [alecazam9] (Eterna round: R97, puzzle: Brourd's mod of Exclusion 4) | 29.1 | 31.1 | – | – | – | –
UUUAAUUUUUUUUUUUUACAAGCUUUUUGCUCGUCUUAUACAUGAGGAUCACCCAUGUGAAUGGAGGAUAAAUUAUC [JMF 30] (puzzle: Sensor v3, turn-off variant 2) | – | – | – | 33.1 | 29.5 | 26
AUCGUGCAGCUUUGCUGUACGAGUACAUGAGGAUCACCCAUGUAGGAUAUGGUACGCAAAGCGUGCUAGAAGGAUAUGAGAAAU [Mat - Exclusion NG 3 - Mod of JL - D99] (Eterna round: R96, puzzle: Exclusion NG 3) | 30.7 | 36.3 | 18.8 | – | – | –
AGAGUGCUGCGAGGAUAUACAUGAGGAUCACCCAUGUUUUCCUGUGAGGCAAAGCCUCACAGGAUGUAGAAGGCGCAGUACUCA [Mat - Exclusion NG 2 - Mod of JL - D39] (Eterna round: R96, puzzle: Exclusion NG 2) | 13.9 | 17.7 | 11.1 | – | – | –
UUAGAAUUGUUAGGAUAUUAAUUAUUUUUUAGUAUGAUCUACAUGAGGAUCACCCAUGUUAAAUAUAAGAAGGAACGUUUUAUU [JR_ExcNG2_Sub097] (Eterna round: R96, puzzle: Exclusion NG 2) | – | – | 40.7 | – | – | –
